In US20130143802A1:

Key:
[1] = target: interleukin 1 receptor (on human peripheral blood leukocytes RPMI 1788) (human (cells are stated to be human)) (UniProt P14778); test: cell-based or functional assay
[2] = target: alpha-amylase; test: cell-based or functional assay

Sequence of UniProt P14778 (P14778 18-569): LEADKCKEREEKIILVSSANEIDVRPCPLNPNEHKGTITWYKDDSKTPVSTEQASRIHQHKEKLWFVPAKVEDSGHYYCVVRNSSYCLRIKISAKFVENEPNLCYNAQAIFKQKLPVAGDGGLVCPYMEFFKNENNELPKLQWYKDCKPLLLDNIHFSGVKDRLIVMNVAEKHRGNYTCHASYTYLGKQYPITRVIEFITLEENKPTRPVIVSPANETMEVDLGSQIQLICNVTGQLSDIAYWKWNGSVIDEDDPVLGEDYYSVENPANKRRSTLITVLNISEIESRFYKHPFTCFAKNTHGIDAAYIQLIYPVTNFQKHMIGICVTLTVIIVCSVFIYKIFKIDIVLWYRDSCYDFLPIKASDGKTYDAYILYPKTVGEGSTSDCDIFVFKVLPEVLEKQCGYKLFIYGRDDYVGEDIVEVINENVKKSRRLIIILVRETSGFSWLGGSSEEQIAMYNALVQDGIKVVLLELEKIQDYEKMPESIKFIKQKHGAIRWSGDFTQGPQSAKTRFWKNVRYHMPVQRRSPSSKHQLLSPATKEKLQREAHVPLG

Substance: un-fused, commercially available interleukin 1 receptor antagonist (from UniProt P18510 26-177) (ligand)
- EC50, inhibition of proliferation of RPMI 1788 cells (CellTiter Glo assay) [1]: 0.0016 µg/mL
- activity relative to IL-1Ra/ELP in the cell proliferation assay [1]: 300 fold

Substance: ELP/IL-1Ra fusion protein (ELP1 [V5A2G3-90] - … - interleukin 1 receptor antagonist) (from UniProt P18510 26-177)
- specific activity: EC50 value in µg/mL, inhibition of proliferation of RPMI 1788 cells (CellTiter Glo assay) [1]: 0.5 µg/mL

Substance: IL-1Ra/ELP fusion protein (interleukin 1 receptor antagonist - … - ELP1 [V5A2G3-90]) (from UniProt P18510 26-177)
- potency relative to ELP/IL-1Ra in the cell proliferation assay [1]: 4 fold
- specific activity: EC50 value in µg/mL, inhibition of proliferation of RPMI 1788 cells (CellTiter Glo assay) [1]: 2 µg/mL

Substance: ternary thioredoxin-ELP-tendamistat fusion (thioredoxin/90-mer ELP/tendamistat) (from UniProt P01092 31-104)
- α-amylase inhibition activity (colorimetric α-amylase inhibition assay) [2]: 2 fold
